Legend:
[1] = biological target: T1, Flag-tagged Pds5b (wild type) from cells co-expressing Δ86-cyclin A2 (human, UniProt Q9NTI5 1-1447, phosphoserine at 1161 and 1166 (by Cdk1/2-cyclin A2)); assay: pull-down; Flag-Pds5a or -b affinity-purified on anti-Flag beads from chromatin-free lysates of taxol-arrested Hek293T cells (expressed alone or with Nek2aΔMR and/or Δ86-cyclin A2); beads incubated with a mixture of recombinant Wapl (2 µl) and sororin (0.3 µg) in 15 µl cleavage buffer with kinase inhibitors, 20 min at 37 °C; bound and unbound fractions by immunoblotting; details: both partners purified
T1 construct: Pds5b, human; insert by PCR on human cDNA; their state in this preparation was not measured; source: Hek293T co-expressing eGFP-Δ86-cyclin A2, taxol-arrested
T1 sequence (looked up): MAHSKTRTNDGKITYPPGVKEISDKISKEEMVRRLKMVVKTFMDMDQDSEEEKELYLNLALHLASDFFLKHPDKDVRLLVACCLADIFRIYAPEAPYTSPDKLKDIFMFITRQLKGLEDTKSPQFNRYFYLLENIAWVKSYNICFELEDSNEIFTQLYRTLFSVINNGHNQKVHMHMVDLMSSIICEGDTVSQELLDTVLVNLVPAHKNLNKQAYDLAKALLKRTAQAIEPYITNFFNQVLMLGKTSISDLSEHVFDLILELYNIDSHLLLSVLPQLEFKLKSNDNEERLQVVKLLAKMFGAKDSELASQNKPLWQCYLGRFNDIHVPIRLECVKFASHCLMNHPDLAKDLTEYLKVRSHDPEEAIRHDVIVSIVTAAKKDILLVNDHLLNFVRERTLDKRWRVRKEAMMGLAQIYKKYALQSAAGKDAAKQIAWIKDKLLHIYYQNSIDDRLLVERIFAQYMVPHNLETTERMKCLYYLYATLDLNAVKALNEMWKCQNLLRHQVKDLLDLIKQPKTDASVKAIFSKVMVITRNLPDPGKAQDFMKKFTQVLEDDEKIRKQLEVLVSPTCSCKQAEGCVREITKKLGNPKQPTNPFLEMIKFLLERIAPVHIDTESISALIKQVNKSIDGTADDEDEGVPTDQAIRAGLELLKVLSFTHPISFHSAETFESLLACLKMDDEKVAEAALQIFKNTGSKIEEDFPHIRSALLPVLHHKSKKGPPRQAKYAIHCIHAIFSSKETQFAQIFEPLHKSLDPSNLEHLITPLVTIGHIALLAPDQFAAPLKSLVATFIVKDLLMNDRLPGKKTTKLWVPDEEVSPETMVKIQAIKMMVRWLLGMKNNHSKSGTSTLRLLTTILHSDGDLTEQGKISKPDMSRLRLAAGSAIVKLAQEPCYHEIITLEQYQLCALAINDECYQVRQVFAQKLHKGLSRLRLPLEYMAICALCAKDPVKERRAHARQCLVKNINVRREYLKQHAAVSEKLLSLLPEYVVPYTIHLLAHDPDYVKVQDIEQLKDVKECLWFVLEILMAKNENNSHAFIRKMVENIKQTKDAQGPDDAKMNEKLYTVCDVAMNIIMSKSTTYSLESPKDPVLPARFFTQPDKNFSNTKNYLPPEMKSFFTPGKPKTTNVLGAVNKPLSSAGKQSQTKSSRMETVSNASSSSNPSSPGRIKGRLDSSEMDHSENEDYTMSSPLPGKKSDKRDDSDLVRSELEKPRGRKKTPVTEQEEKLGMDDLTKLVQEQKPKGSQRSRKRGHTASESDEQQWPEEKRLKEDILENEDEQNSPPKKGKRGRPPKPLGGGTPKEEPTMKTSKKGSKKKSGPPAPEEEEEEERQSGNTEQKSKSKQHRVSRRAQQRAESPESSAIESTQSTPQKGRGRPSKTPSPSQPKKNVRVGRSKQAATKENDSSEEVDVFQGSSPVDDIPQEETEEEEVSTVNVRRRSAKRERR

[2] = biological target: T2, Flag-tagged Pds5b (wild type) from cells co-expressing Nek2aΔMR (human, UniProt Q9NTI5 1-1447, phosphoserine at 1177, 1182 and 1209 (by Nek2a)); assay: as above; details: both partners purified
T2 construct: Pds5b, human; insert by PCR on human cDNA; their state in this preparation was not measured; source: Hek293T co-expressing eGFP-Nek2aΔMR, taxol-arrested
T2 sequence (looked up): T1 sequence (looked up)

- binding result [1]: binds
- binding result [2]: binds
B1: recombinant human Wapl (natural protein, UniProt Q7Z5K2 1-1190, looked up)
chain: MTSRFGKTYSRKGGNGSSKFDEVFSNKRTTLSTKWGETTFMAKLGQKRPNFKPDIQEIPKKPKVEEESTGDPFGFDSDDESLPVSSKNLAQVKCSSYSESSEAAQLEEVTSVLEANSKISHVVVEDTVVSDKCFPLEDTLLGKEKSTNRIVEDDASISSCNKLITSDKVENFHEEHEKNSHHIHKNADDSTKKPNAETTVASEIKETNDTWNSQFGKRPESPSEISPIKGSVRTGLFEWDNDFEDIRSEDCILSLDSDPLLEMKDDDFKNRLENLNEAIEEDIVQSVLRPTNCRTYCRANKTKSSQGASNFDKLMDGTSQALAKANSESSKDGLNQAKKGGVSCGTSFRGTVGRTRDYTVLHPSCLSVCNVTIQDTMERSMDEFTASTPADLGEAGRLRKKADIATSKTTTRFRPSNTKSKKDVKLEFFGFEDHETGGDEGGSGSSNYKIKYFGFDDLSESEDDEDDDCQVERKTSKKRTKTAPSPSLQPPPESNDNSQDSQSGTNNAENLDFTEDLPGVPESVKKPINKQGDKSKENTRKIFSGPKRSPTKAVYNARHWNHPDSEELPGPPVVKPQSVTVRLSSKEPNQKDDGVFKAPAPPSKVIKTVTIPTQPYQDIVTALKCRREDKELYTVVQHVKHFNDVVEFGENQEFTDDIEYLLSGLKSTQPLNTRCLSVISLATKCAMPSFRMHLRAHGMVAMVFKTLDDSQHHQNLSLCTAALMYILSRDRLNMDLDRASLDLMIRLLELEQDASSAKLLNEKDMNKIKEKIRRLCETVHNKHLDLENITTGHLAMETLLSLTSKRAGDWFKEELRLLGGLDHIVDKVKECVDHLSRDEDEEKLVASLWGAERCLRVLESVTVHNPENQSYLIAYKDSQLIVSSAKALQHCEELIQQYNRAEDSICLADSKPLPHQNVTNHVGKAVEDCMRAIIGVLLNLTNDNEWGSTKTGEQDGLIGTALNCVLQVPKYLPQEQRFDIRVLGLGLLINLVEYSARNRHCLVNMETSCSFDSSICSGEGDDSLRIGGQVHAVQALVQLFLERERAAQLAESKTDELIKDAPTTQHDKSGEWQETSGEIQWVSTEKTDGTEEKHKKEEEDEELDLNKALQHAGKHMEDCIVASYTALLLGCLCQESPINVTTVREYLPEGDFSIMTEMLKKFLSFMNLTCAVGTTGQKSISRVIEYLEHC
notes: Wapl, human; insert by PCR on human cDNA; Isolated from mitotically arrested cells; also called GFP-SUMOstar-Wapl; source: Hek293T, transiently transfected, taxol-arrested; not shown: GFP, N-terminal, cleaved; SUMOstar, N-terminal, cleaved
